Experimental data from PMC5297723.

Molecular target: recombinant CMG2-Fc-Apo (rCMG2-Fc-Apo) protein (human) (UniProt P58335)
Experiment: non-reducing SDS-PAGE

recombinant CMG2-Fc-Apo (rCMG2-Fc-Apo) protein (from UniProt P58335 34-318) (Fc fusion)
stoichiometry N: 2
